Results reported in the domain aggregation screens of Martell et al. (2025).

Assay: soluble fraction after stress (log2 fold change); higher = more stays soluble; pooled small domains, quantitative proteomics
Conditions: stress: pH 4
Method in brief: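 Custom libraries of small protein domains were pooled and measured with high-throughput quantitative proteomics after pH 4 stress. The read-out is the fold change in the amount of each domain that stays soluble after the acid stress, taken as a measure of aggregation propensity. Fold changes are on a log2 scale, and higher values mean more of the domain stayed soluble.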

Sequence | soluble fraction (log2)
HMNNIIEQIKADIKKLEEKLDKSSENALNKLEKDYSSLSTESKKKLDDAGYGARIKALRVKFAALSTQ | ≥ 0.43
HMYNNDEIEKIQTMYNAIYQLNDIEKALIMLFLEDKSYKEIAEIMGISEGNARIKMMRTKDKLKNLISKN | -0.608
HMKNKRERLGIISEILRMQVIGSQEELLDILRAKGYDVTQATLSRDLKVLKVAKTPLSNGAYKYVLPPQ | ≥ 0.43
HMQPMIQIHTLANHAPVALHIKRNTQRNIIIRARDASSLNLSIPKWFSPAQLQNWLRDNEATLIRILQQAP | -0.256
HMKTVLDSLLRILDSKELDIVVLRHIVGLTLTEIAKEKDMKKGTVFWMYNRAVKKLRLESERMGL | -0.977
HMLDIPEVGQAVQVRGRLGTVFSVAPYDGREGRLHLVTVDYLDDARPPENDEILWEIESGARILG | -0.763
HMGWEPTPVLVAARDISGGTVLDQDMLRVEAIPSRLVTPSIVRSDLLASVQDAKLLLPMKQGDLLNFNMLQ | -0.49
HMVMTTVPEVLGMDISKAASLLTGKNLDYDYDLVESDKPKDQVIEQDVVKGTEVPEGTVIHLKVSKGPA | -0.0925
HMNPYLWQRVRLLFSNVGVINNSATVDLVFSAPKGVLTEDLANNFSAALVKKGKEELGLDDIKITISVIPN | -2.21
HMDFSSRLKDERKRLKLSQAQLGEAGGVSKDAQLNYENGSRSPSASYLELIAREGVDVQFLLTGKRS | -0.0636
HMSKQVDVVIYILENTKAADNTYIGTYRKTADGAGVSLDTATKVMRKLQENNFIKKVQNGVYQISPLIMM | -0.519
HMADLVYLRKRLQDAIAQLPEDMRTAYTLFQIARRSIREIAELTGASESLVKVRIHRAKGKLQELLEDLR | -0.55
HMGVREIIVQFLEQFDKPKSVQEIVEYVLRYRNTTENSIRSTMYSGSQFRQFDNGYFGLSDKSYPNEYIYA | -1.25
HMPGSGELSRRLELAIRDRTAVRVTAAAAGQERSFTLLPVAITSGRLRATDEQAGVQRTLPLSAIVAVEA | -0.135
HMTTQIPEEVQKRVNQFYEALDEEDYGEAKQILEELEKATAPDHPTLIQMRTRYEFDTMELR | -1.1
HMEYSTLEIYSQTKKDLIEKSPHLNKVVYDKDDGYIYLLSFEKEDDLTSFKSNIENDSDIKRIEANV | -0.91
HMENSLLSESLAKIYIKTHRYERAYEILSRLSLAVPEKNAYFADQLRFLRKVMLAESFRKQHS | 0.22
HMGAKEHLAGETLRMAVELLSEKQGIPAEQALIRFISSPVYDALYDLDTGMWTQGPTRLLEAFEALE | -1.69
HMAVSDAAEEYGKAGTPLVILAGKEYGSGSSRDWAAKGPYLQGVRAVLAESYERIHRSNLVGMGIVPLTYK | 0.109

Sequence | soluble fraction (log2)
HMQVEYTRGELLQDLKEENVLYATITPSRETPTGEVDFVFKDKSIKTLYVTDVSEIEGLLMDYGIDPEVKK | -0.367
HMSDLVATKEQVVEAYKYGLGLGLDNSTLKMLLFDIRGEDVADQDKISDGMTVSEIEIWKEGMRTIAEEYL | -1.07
HMKVFTEDEMLEKIKEYLSTNSYINRRVMETQFGLRQNIALKWLKHFTEIGVLRKEGERNSPIYFLNN | 0.154
HMQFHQDNYALEFIRDLQPVDGAIILSRFKQFDLVELEKAKKIKFSDEHMAWTLYDYDIKKIN | -1.82
HMARIDYHAMDSDDLSFSEGELLEIYDKPGSFWWKGRSLVSGDEGDIPS | -1.15
HMDGIPVPDVKGTVEAEATATLKNSGFEVTKTQDFSDTVEAGKVISQNPAGGSSAASGSSVTLVISQGPN | -0.232
HMSDEAGKVLQLLRENGGYLPYNDRSDPEDIYAFFSMSKKTFKMTAGNLYKQKKIIFTNTGIKLTE | 0.317
HMAEVDREEALRIALAHAAVARRDVRNLKIERGEENGVPVYKVEFETAFGDFDVAVSRRSGDVVDAD | -0.0548
HMRVPQWLVDKIAAAGIDTHRSGPALKALAAKAGTPEQLDQAIARAKALRRRTGSTQSLNVGLLGSILEGT | -0.0808
HMGEKPTEITLSNAISVQELAEKLYVSETDIIRTLFLDGIIVNINQVLDLETAVKVGDQLGVTITIVE | -1.8
HMYSINKTEFGERIKSAREELKMTQTQLAQLLKTSQTTVAKYEHGEQIPRADVLATISKATGKSTDWLLFG | 0.11
HMRREIRLTVTEEIVLMKFLLTQIPYKNRDNFKTLLNDRQIRVNGSVVTWYNHPLKPGQEVTIGWFKM | -0.628
HMPVISGQDLRVLIRDTGRERDQGISFLDDGTMVVVEDARRLIGQEVTATVTRVHQTQTGRIVFAHLSN | -0.698
HMKITKIWFTADHIFGRDEEGKEYSQSLLWYPKLSAASDEERSQYTFGYDGIHWRSLDEDISFESF | -1.52
HMNKPTSMYKLRLLLKHYHAGASKRWMADVLDISRSTLNVYLARIESLNLAFEEWEALSDLEVSRLLINP | -0.852
HMKITFNPVSSGRLDIILAEKTGYTRSYVKQLVEKQAVTINGEAAKKSGQNVKAGDEIALDEP | 0.149
HMYDFGVILQKLRKEKGFTQEQLARLIHKESSIISRYEKGLQNPTFETVKEFAAIFNVSMDYLAG | -0.255
HMDMTPEEFLAWARHKPFGDPFPKTQTVTFLVPLLGVSRTNIFTWISGKVNPSKTSLLLMEALKRENR | -0.444
